Results published in paper doi:10.1101/719815 (bioRxiv, 2019).

B1: 6His-Cdc24_(428-854) (domain or fragment)
chain: SSDDNNTKELEAALDISKNIARSINENQRRTENHQVVKKLYGRVVNWKGYRISKFGELLYFDKVFISTTNSSSEPEREFEVYLFEKIIILFSEVVTKKSASSLILKKKSSTSASISASNITDNNGSPHHSYHKRHSNSSSSNNIHLSSSSAAAIIHSSTNSSDNNSNNSSSSSLFKLSANEPKLDLRGRIMIMNLNQIIPQNNRSLNITWESIKEQGNFLLKFKNEETRDNWSSCLQQLIHDLKNEQFKARHHSSTSTTSSTAKSSSMMSPTTTMNTPNHHNSRQTHDSMASFSSSHMKRVSDVLPKRRTTSSSFESEIKSISENFKNSIPESSILFRISYNNNSNNTSSSEIFTLLVEKVWNFDDLIMAINSKISNTHNNNISPITKIKYQDEDGDFVVLGSDEDWNVAKEMLAENNEKFLNIRLY

What was measured:
SNAP-tagged septin rods = SNAP-tagged septin rods (yeast, UniProt P32458;P32468;P32457;P25342); assay: SPR
6His-Cdc24_(428-854) [1] = target: B1; assay: pull-down
[2] = target: T1, 6His-Cdc24_(428-854) _(K801A) (yeast, UniProt P11433 428-854, K801A); assay: SPR
T1 sequence: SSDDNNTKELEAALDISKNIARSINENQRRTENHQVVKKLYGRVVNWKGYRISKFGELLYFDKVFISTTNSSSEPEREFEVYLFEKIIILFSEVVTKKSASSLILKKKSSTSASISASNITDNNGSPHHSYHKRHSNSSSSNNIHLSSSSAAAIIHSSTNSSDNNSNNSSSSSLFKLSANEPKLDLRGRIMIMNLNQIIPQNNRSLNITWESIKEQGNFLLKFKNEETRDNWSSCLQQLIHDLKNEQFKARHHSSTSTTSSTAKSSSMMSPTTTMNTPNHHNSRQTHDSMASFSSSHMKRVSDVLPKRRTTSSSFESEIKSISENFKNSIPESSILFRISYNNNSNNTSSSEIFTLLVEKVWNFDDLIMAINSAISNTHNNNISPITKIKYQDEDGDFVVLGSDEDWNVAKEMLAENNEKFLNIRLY

[3] = target: T2, Cdc24_(428-854) _(K525E) _(K801A) (yeast, UniProt P11433 428-854, K525E | K801A); assay: SPR
T2 sequence: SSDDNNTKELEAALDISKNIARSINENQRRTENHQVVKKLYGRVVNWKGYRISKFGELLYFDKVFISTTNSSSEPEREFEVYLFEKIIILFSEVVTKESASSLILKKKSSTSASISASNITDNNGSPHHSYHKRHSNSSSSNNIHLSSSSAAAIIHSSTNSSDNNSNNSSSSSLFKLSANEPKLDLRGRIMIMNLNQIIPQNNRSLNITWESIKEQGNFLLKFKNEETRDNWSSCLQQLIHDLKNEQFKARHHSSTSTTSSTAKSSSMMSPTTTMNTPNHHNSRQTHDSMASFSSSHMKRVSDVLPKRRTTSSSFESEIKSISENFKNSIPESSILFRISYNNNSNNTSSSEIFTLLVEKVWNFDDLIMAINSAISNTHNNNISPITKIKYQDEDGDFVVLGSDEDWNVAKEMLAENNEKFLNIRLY

Cdc24_(428-854) _(K525E) = target: T3, Cdc24_(428-854) _(K525E) (yeast, UniProt P11433 428-854, K525E); assay: SPR
T3 sequence: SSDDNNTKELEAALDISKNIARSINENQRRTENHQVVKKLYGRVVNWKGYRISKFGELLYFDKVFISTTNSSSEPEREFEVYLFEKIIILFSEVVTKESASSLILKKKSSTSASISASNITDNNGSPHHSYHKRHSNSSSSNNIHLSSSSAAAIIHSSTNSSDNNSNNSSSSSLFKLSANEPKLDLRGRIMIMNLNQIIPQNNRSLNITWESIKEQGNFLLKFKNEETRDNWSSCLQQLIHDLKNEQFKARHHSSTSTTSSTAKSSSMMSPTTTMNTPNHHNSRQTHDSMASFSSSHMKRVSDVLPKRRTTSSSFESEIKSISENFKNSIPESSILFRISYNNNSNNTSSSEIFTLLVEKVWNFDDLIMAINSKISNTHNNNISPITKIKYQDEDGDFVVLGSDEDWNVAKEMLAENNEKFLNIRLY

6His-Cdc24_(428-854) [4] = target: B1; assay: SPR

Sequence of SNAP-tagged septin rods (P32468 whole entry, chain 2 of 3): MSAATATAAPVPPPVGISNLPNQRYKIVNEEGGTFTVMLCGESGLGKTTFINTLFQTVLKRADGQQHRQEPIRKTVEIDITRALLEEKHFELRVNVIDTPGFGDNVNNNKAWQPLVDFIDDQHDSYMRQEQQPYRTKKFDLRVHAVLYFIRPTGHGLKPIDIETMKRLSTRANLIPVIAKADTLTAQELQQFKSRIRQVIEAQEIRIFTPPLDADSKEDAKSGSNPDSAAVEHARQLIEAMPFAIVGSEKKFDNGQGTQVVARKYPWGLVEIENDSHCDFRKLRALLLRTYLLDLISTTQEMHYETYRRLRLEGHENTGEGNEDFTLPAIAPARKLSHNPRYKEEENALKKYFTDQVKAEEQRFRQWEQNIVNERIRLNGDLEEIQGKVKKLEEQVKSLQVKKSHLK
Sequence of SNAP-tagged septin rods (P32457 whole entry, chain 3 of 3): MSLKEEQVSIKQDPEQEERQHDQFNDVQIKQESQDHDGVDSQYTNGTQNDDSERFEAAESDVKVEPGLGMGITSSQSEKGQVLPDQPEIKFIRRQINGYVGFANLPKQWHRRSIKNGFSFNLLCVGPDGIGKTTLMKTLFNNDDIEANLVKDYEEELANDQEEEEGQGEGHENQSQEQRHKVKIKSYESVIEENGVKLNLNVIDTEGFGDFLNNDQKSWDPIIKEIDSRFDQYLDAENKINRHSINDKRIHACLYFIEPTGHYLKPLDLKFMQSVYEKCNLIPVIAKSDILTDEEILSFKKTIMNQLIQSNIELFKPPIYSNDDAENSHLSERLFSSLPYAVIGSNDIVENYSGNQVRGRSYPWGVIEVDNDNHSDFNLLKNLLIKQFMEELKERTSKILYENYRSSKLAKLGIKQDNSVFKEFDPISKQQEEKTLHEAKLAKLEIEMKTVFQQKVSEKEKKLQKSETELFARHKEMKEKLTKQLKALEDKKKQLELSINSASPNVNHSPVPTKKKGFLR
Sequence of SNAP-tagged septin rods (P25342 whole entry, chain 4 of 3): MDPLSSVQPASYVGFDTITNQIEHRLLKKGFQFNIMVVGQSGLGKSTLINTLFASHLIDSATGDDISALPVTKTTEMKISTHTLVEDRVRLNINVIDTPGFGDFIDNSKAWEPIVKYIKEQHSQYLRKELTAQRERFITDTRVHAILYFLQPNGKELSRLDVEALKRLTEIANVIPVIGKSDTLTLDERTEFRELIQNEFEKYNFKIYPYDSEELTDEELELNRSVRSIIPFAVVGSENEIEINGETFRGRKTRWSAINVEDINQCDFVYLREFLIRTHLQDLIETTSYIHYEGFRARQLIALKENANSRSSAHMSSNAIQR

Work on B1 yielded a Kd (SNAP-tagged septin rods) of 351 nM.

B2: GST-Cdc11 (natural protein)
chain: MSGIIDASSALRKRKHLKRGITFTVMIVGQSGSGRSTFINTLCGQQVVDTSTTILLPTDTSTEIDLQLREETVELEDDEGVKIQLNIIDTPGFGDSLDNSPSFEIISDYIRHQYDEILLEESRVRRNPRFKDGRVHCCLYLINPTGHGLKEIDVEFIRQLGSLVNIIPVISKSDSLTRDELKLNKKLIMEDIDRWNLPIYNFPFDEDEISDEDYETNMYLRTLLPFAIIGSNEVYEMGGDVGTIRGRKYPWGILDVEDSSISDFVILRNALLISHLHDLKNYTHEILYERYRTEALSGESVAAESIRPNLTKLNGSSSSSTTTRRNTNPFKQSNNINNDVLNPASDMHGQSTGENNETYMTREEQIRLEEERLKAFEERVQQELLLKRQELLQREKELREIEARLEKEAKIKQEE
B2: binds (6His-Cdc24_(428-854) [1]).

B3: 6His-Cdc11-SNAP (natural protein)
chain: MSGIIDASSALRKRKHLKRGITFTVMIVGQSGSGRSTFINTLCGQQVVDTSTTILLPTDTSTEIDLQLREETVELEDDEGVKIQLNIIDTPGFGDSLDNSPSFEIISDYIRHQYDEILLEESRVRRNPRFKDGRVHCCLYLINPTGHGLKEIDVEFIRQLGSLVNIIPVISKSDSLTRDELKLNKKLIMEDIDRWNLPIYNFPFDEDEISDEDYETNMYLRTLLPFAIIGSNEVYEMGGDVGTIRGRKYPWGILDVEDSSISDFVILRNALLISHLHDLKNYTHEILYERYRTEALSGESVAAESIRPNLTKLNGSSSSSTTTRRNTNPFKQSNNINNDVLNPASDMHGQSTGENNETYMTREEQIRLEEERLKAFEERVQQELLLKRQELLQREKELREIEARLEKEAKIKQEE
modifications: biotinylated with BG-Biotin (on the SNAP tag)
B3: binds [2]; binds [3]; binds (Cdc24_(428-854) _(K525E)). The Kd (6His-Cdc24_(428-854) [4]) was 257 nM.
